From patent publication US6770740B1, “Crosslinked DNA condesate compositions and gene delivery methods” (The Regents of the University of Michigan, priority 1999, dated 2004)
Where no end group is shown, it is not given here. The star is where a group is joined. Carboxymethyl = O=C(O)C*

How the values were obtained:
[1] = QELS particle size and zeta potential of cross-linking peptide DNA condensates, Example 5; assay type: physicochemical; conditions: for Particle Size Mean Diameter, Oxidized, 15° / Particle Size Mean Diameter, Oxidized, 90°: HBM after 2 h incubation, 50 μg/ml DNA, 0.4 nmol peptide per μg DNA; for Particle Size Mean Diameter, Oxidized, 15°: scattering angle 15°; for Particle Size Mean Diameter, Oxidized, 90°: scattering angle 90°; for Particle Size Mean Diameter, Saline: HBM with added saline (0.15 M) after 15 min; for Particle Size Mean Diameter, Reduced: following addition of TCEP (1 mM)
Method in brief: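 Condensates at 50 μg/ml DNA in HBM, 0.4 nmol peptide per μg DNA (charge ratio ~2:1); size by QELS at 15° and 90°, mean diameter from diffusion coefficient by unimodal cumulant analysis. Peptide IV series: 7.5-37.5 nmol peptide with 75 μg DNA, charge ratio 0.5-2.5; zeta potential averaged over 10 determinations.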

[2] = Shear stress stability of cross-linked DNA condensates (salt sonication), Example 5; assay type: physicochemical; conditions: 30 sec sonication; highest lane 2.5 M
Protocol: Peptide DNA condensates (200 μl of 50 μg/ml) were formed and incubated at RT for 30 min and then combined with 0 to 200 μl of 5 M sodium chloride and normalized to 400 μl with HBM to achieve a final sodium chloride concentration of 0, 0.2, 0.4, 0.8, 1.0, 1.5, 2.0, and 2.5 M. Each sample was sonicated for 30 sec with a 100 W Microson™ XL-2000 ultrasonic probe homogenizer (Kontes, Vineland N.J.) with a vibrational amplitude of 6 to fragment uncondensed DNA (Adami et al., 1998). DNA condensates were digested with 30 μg of trypsin for 12 h at 37° C. then electrophoresed on an agarose gel and visualized by ethidium bromide staining.

[3] = system: HepG2 cells; test: Cell uptake of 125I-DNA condensates in HepG2 cells, Example 5; assay type: cell-based; conditions: HepG2, 5 h transfection
Protocol: Iodinated plasmid DNA (pCMVL) was prepared with specific activity of 300 nCi per μg of DNA as described previously (Terebesi et al., 1998). Prior to forming DNA condensates, the specific activity of the ^125I DNA was adjusted to 4.5 nCi μg of DNA by combining with unlabeled plasmid. DNA condensates were prepared using AlkCWK18 or peptide II as described above. Peptide ^125I-DNA condensates (10 μg) were used to transfect HepG2 and COS 7 cells for 5 h according to the procedure described above. The radioactive media was removed, cells were washed once with 2 ml of 1 M sodium chloride and three times with 2 ml of cold PBS and then harvested with 1 ml of lysis buffer. The cell-associated radioactivity from triplicate transfections was quantified by gamma counting.

[4] = Shear stress stability (salt sonication assay), Example 6; assay type: physicochemical; conditions: 30 sec sonication; highest tested 2.5 M
Protocol: The relative stability of peptide DNA condensates were examined using a salt sonication assay (Adami and Rice, 1999). Peptide DNA condensates (200 μl of 50 μg/ml) were formed as described above, incubated at RT for 30 min and then combined with 0-200 μl of 5 m […] and normalized to 400 μl with HBM to achieve a final sodium chloride concentration of 0, 0.2, 0.4, 0.8, 1.0, 1.5, 2.0 and 2.5 M. Each sample was sonicated for 30 sec with a 100 W Microson™ XL-2000 ultrasonic probe homogenizer (Kontes, Vineland N.J.) with a vibrational amplitude of 5 fragment uncondensed DNA. DNA condensates were digested with 30 μg to trypsin for 12 h at 37° C., electrophoresed on a 1% agarose gel electrophoresed in TEA buffer for 2 h, then visualized by ethidium bromide staining and destaining prior to photography on a transilluminator.

[5] = QELS particle size and zeta potential of peptide DNA condensates, Example 6; assay type: physicochemical; conditions: charge ratio 4:1, 50 μg/ml DNA in HBM; for Particle Size (nm): 90°, average and SD of three, No particles formed; for Zeta Potential (mV): average and SD of ten
Protocol: The particle size and zeta potential of peptide DNA condensates were determined by quasielastic light scattering (QELS) using a Brookhave ZetaPlus™. Particle size analysis was performed in triplicate at a DNA concentration of 50 μg/ml in HBM at a charge ratio of 4:1 and a scattering angle of 90°. Data analysis utilized a multimodal volume distribution option included with the instrument. Zeta potential was also determined using 50 μg/ml peptide DNA condensates prepared at a 4:1 charge ratio in HBM. The reported zeta potential was averaged from ten determinations.

[6] = system: HepG2, COS 7 and CHO cells; test: Luciferase gene expression, result stated for each of three cell lines, Example 6; assay type: cell-based
Protocol: HepG2 cells (1.5×10^5) were plated on 6×35 mm wells and grown to 50% confluencey in MEM supplemented with 10% FBS, penicillin and streptomycin (100 U/ml), sodium pyruvate (100 mM), and L-glutamine (2 mM). Transfections were performed in MEM (2 ml per 35 mm well) with 2% FBS with and without 80 μM chloroquine. Peptide DNA condensates (10 μg of DNA of 0.2 ml HBM) were added dropwise to triplicate wells. After a 5 h incubation at 37° C., the medium was replaced with MEM supplemented with 10% FBS. After 24 h, cells were washed with ice-cold phosphate buffered saline (calcium and magnesium free) and then treated with 0.5 ml of ice-cold lysis buffer (25 mM) Tris chloride pH 7.8, 1 mM EDTA, 8 mM magnesium chloride, 1% Triton X-100, 1 mM DTT) for 10 min. […]
Lysis buffer (300 μl), sodium-ATP (4 μl of a 180 mM solution, pH 7, 4° C.) and cell lysate (100 μl, 4° C.) were combined in a test tube, briefly mixed and immediately placed in the luminometer. Luciferase relative light units (RLU) were recorded on a Lumat™ LB 9501 (Berthoid Systems, Germany) with 10 sec integration after automatic injection of 100 μl of 0.5 mM D-luciferin (prepared fresh in lysis buffer without DTT). […] Protein concentrations were measured by Bradford assay using bovine serum albumin as a standard (Bradford, 1976). […]

Substance | Particle Size Mean Diameter, Oxidized, 15° [1] [nm] | Particle Size Mean Diameter, Oxidized, 90° [1] [nm] | Particle Size Mean Diameter, Saline [1] [nm] | Particle Size Mean Diameter, Reduced [1] [nm] | sodium chloride concentration up to which DNA is protected from sonicative fragmentation [2] [M] | 125I-DNA uptake, % of dose [3] | sodium chloride concentration up to which DNA condensates are stable [4] [M] | Particle Size (nm) [5] [nm] | Zeta Potential (mV) [5] [mV] | lower gene expression in the absence of chloroquine relative to presence of 80 μM chloroquine ([6]; in each cell line) | enhancement of gene expression over peptide 1 DNA condensates ([6]; in each cell line tested, charge ratio 4, 80 μM chloroquine) [fold]
Alk-S-Cys-Trp-Lys18 (C(Carboxymethyl)WKKKKKKKKKKKKKKKKKK) [AlkCWK18] | 97 | 95 | 1215 | 74 | 0.4 | 9.5 % of dose | 0.4 | 64 ± 11 | 26 ± 1 | 10-15 fold | 
Cys-Trp-Lys17-Cys (CWKKKKKKKKKKKKKKKKKC) [Peptide II] | 31 | 42 | 257 | 121 | 1.0 | 8.7 % of dose | 1 | 53 ± 16 | 28 ± 9 |  | 10 to 40
